The source of these data is patent publication US20140193431A1 (KOREA RESEARCH INSTITUTE OF BIOSCIENCE AND BIOTECHNOLOGY, published 2014).

For assay [1], the target named is c-Met (ligand of the SPR analysis, form not stated) (UniProt P08581). The assay can be described thus: SPR (ProteOn XPR36), B7 antibody flowed at 2.5-80 nM, Langmuir 1:1 model; immobilised protein not named.
Assay [2] has the same target. In words: SPR (ProteOn XPR36), B7 at 2.5 to 80 nM as analyte, Langmuir 1:1 fit, grouped.
Assay [3] deals with T1, dog Met receptor on MDCK cells (dog, UniProt Q75ZY9 25-1382).
T1 construct: whole, on cells; also called Met receptor of dog kidney MDCK (Madin-Darby Canine Kidney) cells
The assay can be described thus: FACS on MDCK cells, Alexa Fluor 488 anti-human IgG. As to the method: Each of Hep3B, HeLa, A549 and HepG2, known to readily express the Met receptor, MCF7 cells known to not readily express the Met receptor, and dog kidney MDCK (Madin-Darby Canine Kidney) cells was prepared, washed twice with PBS, detached by treatment with trypsin, washed again with PBS, and then suspended in PBS (PBA buffer) containing 1% BSA protein. Then, the cells were treated with the purified with the purified B7 antibody at 1:100 at 4° C., after which the cells were washed with PBA buffer and precipitated by centrifugation at 1200 rpm for 3 minutes, and the washing and precipitation process was repeated three times. […] The cells were washed in the same manner as described above and subjected to FACS analysis (BD Cantoll Flow Cytometer) (FIG. 6). Herein, human IgG (hIgG) was used as the internal standard. FIG. 6 is a graphic diagram showing the results of FACS analysis performed to examine whether the B7 antibody did bind to Hep3B, HeLa, A549, HepG2, MCF7 and dog kidney MDCK cells.

T1 sequence (Q75ZY9 25-1382): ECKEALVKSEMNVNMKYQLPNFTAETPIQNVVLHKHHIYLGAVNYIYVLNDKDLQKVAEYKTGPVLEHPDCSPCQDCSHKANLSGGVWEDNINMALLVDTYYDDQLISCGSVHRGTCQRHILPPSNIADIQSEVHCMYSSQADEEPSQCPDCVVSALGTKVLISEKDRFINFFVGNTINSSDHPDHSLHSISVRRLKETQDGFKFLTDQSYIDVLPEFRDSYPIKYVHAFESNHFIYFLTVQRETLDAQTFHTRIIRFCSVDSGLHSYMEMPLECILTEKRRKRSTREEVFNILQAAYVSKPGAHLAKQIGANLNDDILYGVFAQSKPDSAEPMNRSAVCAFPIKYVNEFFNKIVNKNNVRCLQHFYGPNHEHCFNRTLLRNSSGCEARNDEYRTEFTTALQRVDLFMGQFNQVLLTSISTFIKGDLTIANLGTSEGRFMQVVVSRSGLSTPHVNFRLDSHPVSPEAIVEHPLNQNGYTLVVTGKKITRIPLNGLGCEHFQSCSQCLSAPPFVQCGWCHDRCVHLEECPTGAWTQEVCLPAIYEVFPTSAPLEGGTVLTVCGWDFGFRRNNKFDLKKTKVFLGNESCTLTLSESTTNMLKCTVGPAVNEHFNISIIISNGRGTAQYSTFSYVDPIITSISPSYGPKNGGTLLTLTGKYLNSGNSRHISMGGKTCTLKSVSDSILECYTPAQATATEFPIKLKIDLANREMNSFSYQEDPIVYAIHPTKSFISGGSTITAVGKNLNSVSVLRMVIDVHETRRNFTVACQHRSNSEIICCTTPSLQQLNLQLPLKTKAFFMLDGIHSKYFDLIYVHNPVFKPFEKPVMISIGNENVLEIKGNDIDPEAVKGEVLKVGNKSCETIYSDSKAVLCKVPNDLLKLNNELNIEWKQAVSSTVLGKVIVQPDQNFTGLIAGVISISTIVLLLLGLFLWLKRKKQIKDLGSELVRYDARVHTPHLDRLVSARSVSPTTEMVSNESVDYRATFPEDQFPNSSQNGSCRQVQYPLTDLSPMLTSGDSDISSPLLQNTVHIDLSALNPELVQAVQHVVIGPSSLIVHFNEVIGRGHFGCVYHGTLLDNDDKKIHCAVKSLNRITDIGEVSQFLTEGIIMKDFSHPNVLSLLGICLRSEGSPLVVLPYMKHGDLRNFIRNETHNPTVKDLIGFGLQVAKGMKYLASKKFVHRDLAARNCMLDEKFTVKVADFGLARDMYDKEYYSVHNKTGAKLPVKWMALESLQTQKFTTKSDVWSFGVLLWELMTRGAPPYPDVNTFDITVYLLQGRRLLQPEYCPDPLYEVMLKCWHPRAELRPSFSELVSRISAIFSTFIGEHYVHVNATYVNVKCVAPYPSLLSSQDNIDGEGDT

B1: B7 antibody (human anti-c-Met antibody, whole IgG) (antibody, V domains shown)
VH: QVQLQEWGAGLLKPSETLSLTCAVSGGSLSGHYWSWVRLPPGKGLEWIGEISHSGNTNYNSSLKSRASISIDTSKNEYSLNLKSVTAVDTAVYYCARFYGDYPSSYGMDVWGQGTTVTVSS
VL: QSALTQPASVSGSPGQSITISCTGTISDIGTYDFVSWYQHKPGKAPKLLIFDVNNRPSGVSSRFSGSKSDNTASLSISGFQAEDEADYYCSSYTDNRGLVLFGGGTKLTVLR
notes: Whole IgG made by cloning the B7 phage variable regions into pNATABH/pNATABL vectors and expressing them in 293E cells; also called human antibody B7; C-Met B7 antibody
On to B1, for which the Kd in assay [1] is 3.3 nM. Besides, the kon in assay [2] came out at 73000 M⁻¹ s⁻¹. Moreover, the binding result in assay [3] is given as “no binding (tested: 1:100)”.

As a reminder, the Kd is the free concentration of one partner at which half of the binding sites on the other are occupied at equilibrium, for simple one-to-one binding. Usually kon stands for the second-order rate constant of association. A low value points to slower complex formation.
